Experimental data reported in publication PMC2741138 (Journal of molecular biology, 2008).
“And” between values parts separate entries of the source, which are not always exact repeats. Equal entries are not always repeated.

B1: (RS)8 (peptide)
chain: RSRSRSRSRSRSRSRS
modifications: Expanded from the printed formula (RS)8; any flanking residues or end caps are not stated
B2: (RS)16 (peptide)
chain: RSRSRSRSRSRSRSRSRSRSRSRSRSRSRSRS
modifications: Expanded from the printed formula (RS)16; any flanking residues or end caps are not stated
B3: ASF(RRM1) (domain or fragment)
chain: MSGGGVIRGPAGNNDCRIYVGNLPPDIRTKDIEDVFYKYGAIRDIDLKNRRGGPPFAFVEFEDPRDAEDAVYGRDGYDYDGYRLRVEFPRS
B4: ASF(RRM2) (domain or fragment)
chain: NRVVVSGLPPSGSWQDLKDHMREAGDVCYADVYRDGTGVVEFVRKEDMTYAVRKLDNTKFRSHEGETAYIRVKVDGPRSPSYG
B5: ASF(ΔRRM1)-His (domain or fragment)
chain: GGAPRGRYGPPSRRSENRVVVSGLPPSGSWQDLKDHMREAGDVCYADVYRDGTGVVEFVRKEDMTYAVRKLDNTKFRSHEGETAYIRVKVDGPRSPSYGRSRSRSRSRSRSRSRSNSRSRSYSPRRSRGSPRYSPRHSRSRSRT
B6: ASF(ΔRRM12)-His (domain or fragment)
chain: GPRSPSYGRSRSRSRSRSRSRSRSNSRSRSYSPRRSRGSPRYSPRHSRSRSRT
B7: ASF(RS12)-His (domain or fragment)
chain: PRSPSYGRSRSRSRSRSRSRSRSNSRSRSYSPRRSRGSPRYSPRHSRSRSRT

These molecules were tested against SRPK1 (UniProt Q96SB4) (assay: kinase competition assay).
Chain of SRPK1 (UniProt Q96SB4) (Q96SB4 whole entry): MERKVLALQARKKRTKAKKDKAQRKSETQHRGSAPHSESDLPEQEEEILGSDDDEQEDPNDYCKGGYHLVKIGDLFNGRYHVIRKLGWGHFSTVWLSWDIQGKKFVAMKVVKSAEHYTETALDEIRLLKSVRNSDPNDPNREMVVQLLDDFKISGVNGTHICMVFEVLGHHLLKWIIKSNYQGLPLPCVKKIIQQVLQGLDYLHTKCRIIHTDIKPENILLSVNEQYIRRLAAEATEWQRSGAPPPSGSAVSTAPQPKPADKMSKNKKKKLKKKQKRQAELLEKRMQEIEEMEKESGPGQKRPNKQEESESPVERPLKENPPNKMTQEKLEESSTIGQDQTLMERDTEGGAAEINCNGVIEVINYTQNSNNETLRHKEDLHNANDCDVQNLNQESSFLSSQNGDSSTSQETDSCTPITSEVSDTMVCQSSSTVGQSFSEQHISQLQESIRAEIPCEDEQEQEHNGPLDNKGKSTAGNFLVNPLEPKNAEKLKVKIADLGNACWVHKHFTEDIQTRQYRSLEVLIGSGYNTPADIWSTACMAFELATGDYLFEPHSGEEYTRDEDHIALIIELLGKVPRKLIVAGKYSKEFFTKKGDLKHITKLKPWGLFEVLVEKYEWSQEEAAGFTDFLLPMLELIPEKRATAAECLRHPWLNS

Molecule | Ki [nM]
ASF(ΔRS2) (domain or fragment) | 170
Block 1/2 (from UniProt Q07955 1-248) (natural protein) | 40
Block 3/4 (from UniProt Q07955 1-248) (natural protein) | 120
Block 2/3 (from UniProt Q07955 1-248) (natural protein) | 45
ASF(ΔRS) (domain or fragment) | 180

What follows are molecules tested against T1, SRPK1 (UniProt Q96SB4 1-655) (assay: kinase competition assay).
T1 sequence (Q96SB4 whole entry): as above

Molecule | Ki
B1 | 1800 nM and 1600 nM
B2 | 160 ± 41 nM
B3 | 1600 ± 400 nM
B4 | 6300 ± 1900 nM

Biological target: T1, SRPK1
Assay: kinase competition assay
Remark: another data set of the same source

Molecule | Ki [nM]
B5 | 54 ± 5
B6 | 70 ± 15
B7 | 190 ± 13
